Measured values from the domain aggregation screens of Martell et al. (2025).

test: soluble fraction after stress (log2 fold change); higher = more stays soluble; pooled small domains, quantitative proteomics; settings: stress: pH 4
Summary of the method: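 Pooled custom libraries of small protein domains were subjected to pH 4 and measured by high-throughput quantitative proteomics. The log2 fold change in soluble amount per domain is reported, higher values meaning more remained soluble. This is used as a measure of aggregation propensity.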

Going from “HMSDPVKQVAMRILDLREISDYTVDKMAEVLNVPVEEYRKYESGEVDMPISFLVKIGEVFHVDMTELLTG” to “HMSDQTYVKDPETGEIFRVHKRVWETGEFWRDPVWGNILGGVERGSELERLLREEGWRPLQQSLEGFPEQ”, the “soluble fraction (log2)” value rises from -0.679 to -0.276.

“HMSDRESYGRYRNVSLTLSEYESLKNEYPLYADKYIERLSEYMETAGKHYNNHYATILSWLSKDIK” and “HMSDSGLPLPRFVSLGDDRVNARAGPGFRFPINWVYLRKNFPVEVIDEFGHWRRIKDIDGIEGWIHLSML” are within 0.2 log units of each other in “soluble fraction (log2)” value: -0.8 for the first, -0.734 for the second.

Going from “HMSDTSELESIIAQIIEDNPKSIEDIGAGNQKAYGFLTGQVMKATKGQANPQVANKIIRELVARKLE” to “HMSDTVDITKLGIAGKTKEAAEALLKENGFSVESKEENSDTIEKGKVISYSPTKPKNGDRITLIVSSGKK”, the “soluble fraction (log2)” value rises from -0.41 to 0.301.

Compared with “HMSEDTYNTLTKGTRVYNGVDYGAKYGYNPLYYFLNYNDLRIAYGADPAKLVEHYALFGIKENRVANRQIT”, “HMSEEELETSGLVKRSAKGNLYDIFRHRVMVPIIDVRGAIIAFGGRVLDDSKPKYINSPETMVY” is higher in “soluble fraction (log2)” value: -0.247 for the first, 0.0468 for the second.

Going from “HMSEEQLKAFLEKVQGDTSLQEKLKAAADANAVVEIAKEAGFSISADDLKNAQSELSEEELE” to “HMSEEVDVPDLVGMQLEEAEKSLEPLGLKLKIAKEIPNSEFEKGKIVDQKTKAGEKVKTGYTIEVTVSSG”, the “soluble fraction (log2)” value rises from -0.257 to -0.0107.

“HMSEFAYPISLNGKTKFNLALSLALTKEEIEKEVLANADVQKFLNGQTPKKLIVVPGKIVNVV” and “HMSEGEMSQWIIAQAKQQGGGFQPDAARLLGSYVGNNTLRARQEIDKLLTYVGPSRVVTPEDVVLLTA” are within 0.2 log units of each other in “soluble fraction (log2)” value: 0.123 for the first, -0.0309 for the second.

“HMSEHKFIVPEEFNLKRLDQTVAAQFEKISRTKISKIIKSSLLKVNDKVVTDQSIKIKQDDVITFTEIKDQ” and “HMSEKRLHLVVDESDVNTRIDKYIADELDGYSRSFIQKLIKDNNVLVNGRAVKPNYNIGISDNIDIVLPKL” are within 0.2 log units of each other in “soluble fraction (log2)” value: 0.237 for the first, 0.188 for the second.

Compared with “HMSELIDSLTEAVRSAPDAVPLRLHLAELLLADGQRDRAFAQLGQVLAKDPQNARALEMLGVGS”, “HMSELSEVIEKTFEELPEELKLIVKLREIDDLSYDEISNKIGIPIGTVRSRLHRAREILINIIKN” is lower in “soluble fraction (log2)” value: -0.373 for the first, -1.01 for the second.

First: HMSELSGSQLKAIREEKHIPLEQVASATRIRLSLLEALEMDEYAELGSRTQARGFLKLYADFLGVPFEA
Second: HMSEMDNMEWVREQYFQNMIYEIGEWVRDKKTGIVGEVVKRGTNYVTVVQEDFSLHKIWLEDLETTEK
The “soluble fraction (log2)” value of the first is higher: 0.00575 for the first, -0.966 for the second.

Going from “HMSEMLPFDEARRQFERDYLVQLLKLTSGNVSQAARLARRNRTDFYALLGRHQLEPASFKPE” to “HMSEMVIPEDFLAALETNPQAKAFYATLNRQNQYAVYHRLQTAKRPETRAKRIADFVAQLAAGKRF”, the “soluble fraction (log2)” value rises from -0.641 to -0.00136.

Compared with “HMSEPHPPFQVVAQFPYKSEYEDDLNFEKDQIITVTSIEDDEWYYGDFKNKGGELVEGIFPKSFVTVK”, “HMSEPQYKVLFSNLDDRDGGAIVTALGAMNVPYKYNDTGTALLVPADRVYDARLQLASQGLPRG” is higher in “soluble fraction (log2)” value: -0.867 for the first, 0.172 for the second.

Compared with “HMSEPTVVAINETLTSERLDRYLTTQLPHISRGGIQRLLRKGNILVDGKPAKPTQHPVAGQTVEITWPIPK”, “HMSEQMQVGELVFQLHRKAIKNLHINVLPPDGFVRVSAPQAMTETAIRTAVISRLPWIRRQQQAFAAQ” is higher in “soluble fraction (log2)” value: -0.02 for the first, ≥ 0.43 for the second.

Compared with “HMSERVVEIDPSQLRPGLFIRLPSGWMNHPFLFNQFRINSAEQVEIIQKLGLKTVQYLPERSSTQALPRA”, “HMSESEDFQNRWRPWRSLLDDETPVVREALVDQLKLFPEEGRLFLQQMSEEDDPISARHAFELIKSLGW” is lower in “soluble fraction (log2)” value: -0.644 for the first, -1.11 for the second.

Compared with “HMSETAVTYNEDFEADGSLRPNEQAVLDAFTGVLKLTVSELEKKTGLRNVVPVVASLMAKGAVEVSEELK”, “HMSETEWGEIYRKVMAAGLIPARSVRERLLALPSIEPLLQAAEAAGSKGMLDETLLDSLLSKT” is higher in “soluble fraction (log2)” value: -0.763 for the first, -0.539 for the second.

Compared with “HMSETLESYTTRLKQLEEIADSFQGVDKTFAIQAGREIRVMVVPEQISDDDMILLARDISNQIEENLDY”, “HMSEVIYVAEDNVGQRIDVFLVNKLVDASRANIQKNIVDGVILVNNKNVKANYKLRLGDVVEIRTQ” is higher in “soluble fraction (log2)” value: -0.912 for the first, -0.317 for the second.

First: HMSEVPAAVLVTGGSINLREAPSTDATIIDVAQVGEKMTVLAEKNSWYQVSRGGRNVWVASWVVDPLT
Second: HMSEVTYQETLRLLRRAIDVLPQQSRQIILLGLSGKNNNEVAEMLGISVNTVKTLKKGAYKSLRNSL
The “soluble fraction (log2)” value of the first is lower: -0.566 for the first, -0.281 for the second.

“HMSEYITEGWLREKFGLGWGTEVHLPLDSRLTPAAHQLLEERKIVIKYIDAEGRVFNPDKSGEEAPVQ” and “HMSEYVIVTGEKVNLRVGPGMDYEIAGQVVKGDKLELLASEGDWSKVKTGSGSIYYISSSLVQKA” are within 0.2 log units of each other in “soluble fraction (log2)” value: -0.343 for the first, -0.334 for the second.

Going from “HMSFDGFSDRLKSVLNSGKYTQKEAAEKINISEYSFTKYLNGRIPQTEILYKIARLYNKSMEWLLTGKDPI” to “HMSFGWELYKGKEGIADTDLHPSGWIRIADKRVFAVSEGEFIEKGLEIIVLSVDGNRIVVRELK”, the “soluble fraction (log2)” value falls from -0.158 to -0.445.

In the case of “HMSFGWETLEGKEGVTDTDLHPSGWVKVGDEKIFVVSQGEFLGKGTDIVVVSVDGNRVVVKELI”, the “soluble fraction (log2)” value is reported as -1.11.
